Reference: patent US20240059799A1 (Pfizer, published 2024)
Positions count from the first letter of the chain named.

T1: human IL-23 (human, UniProt P29460 23-328; Q9NPF7 20-189)
T1 construct: Heterodimer p40/p19; Whole entries as named; also called IL-23 Human; recombinant human IL-23
T1 sequence 1: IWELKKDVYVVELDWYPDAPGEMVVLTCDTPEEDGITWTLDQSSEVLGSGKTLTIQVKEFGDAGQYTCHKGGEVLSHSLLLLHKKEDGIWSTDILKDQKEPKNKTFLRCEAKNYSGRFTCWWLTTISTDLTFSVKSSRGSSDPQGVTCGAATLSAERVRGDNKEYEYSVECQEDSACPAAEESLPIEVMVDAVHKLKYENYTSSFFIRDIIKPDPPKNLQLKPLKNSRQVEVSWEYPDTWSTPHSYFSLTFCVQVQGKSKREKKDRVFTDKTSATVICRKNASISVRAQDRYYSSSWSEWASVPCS
T1 sequence 2: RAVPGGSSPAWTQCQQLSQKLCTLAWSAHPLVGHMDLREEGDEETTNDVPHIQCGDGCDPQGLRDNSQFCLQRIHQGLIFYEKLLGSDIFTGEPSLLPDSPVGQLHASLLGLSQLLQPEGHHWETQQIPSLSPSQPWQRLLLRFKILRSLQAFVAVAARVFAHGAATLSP

T2: recombinant human TL1A (human, UniProt O95150 71-251)
T2 construct: homotrimer; biotinylated for SPR capture; the ELISA paragraphs say only 'recombinant TL1A'; also called TNFSF15
T2 chain: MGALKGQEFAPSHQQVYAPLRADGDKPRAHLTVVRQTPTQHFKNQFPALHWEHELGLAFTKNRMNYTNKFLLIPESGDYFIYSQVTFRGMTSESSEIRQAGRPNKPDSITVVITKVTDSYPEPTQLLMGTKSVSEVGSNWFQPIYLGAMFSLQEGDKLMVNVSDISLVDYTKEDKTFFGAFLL

T3: human IL-23 (human, UniProt P29460 23-328; Q9NPF7 20-189)
T3 sequence 1: T1 sequence 1
T3 sequence 2: T1 sequence 2

T4: human IL-12 (human, UniProt P29460 23-328; P29459 23-219)
T4 sequence 1: T1 sequence 1
T4 sequence 2: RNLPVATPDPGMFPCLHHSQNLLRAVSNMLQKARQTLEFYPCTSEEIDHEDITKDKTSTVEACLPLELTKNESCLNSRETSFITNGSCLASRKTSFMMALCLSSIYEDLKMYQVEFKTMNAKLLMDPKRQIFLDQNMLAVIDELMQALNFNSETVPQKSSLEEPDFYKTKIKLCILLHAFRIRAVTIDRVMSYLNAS

T5: recombinant human TL1A (human, UniProt O95150 71-251)
T5 construct: Homotrimeric cytokine; biotinylated with Sulfo-NHS-biotin where captured for SPR, coated unlabelled in ELISA, soluble in bioassays; also called TNFSF15
T5 chain: T2 chain

B1: p40TL1A-0024 (bispecific antibody, human IgG1, kappa)
heavy 1: EVQLVQSGAEVKKPGESLKISCKGSGYSFTTYWLGWVRQMPGKGLDWIGIMSPVDSDIRYSPSFQGQVTMSVDKSITTAYLQWNSLKASDTAMYYCARRRPGQGYFDFWGQGTLVTVSSASTKGPSVFPLAPSSKSTSGGTAALGCLVKDYFPEPVTVSWNSGALTSGVHTFPAVLQSSGLYSLSSVVTVPSSSLGTQTYICNVNHKPSNTKVDKKVEPKSCDKTHTCPPCPAPEAAGAPSVFLFPPKPKDTLMISRTPEVTCVVVDVSHEDPEVKFNWYVDGVEVHNAKTKPREEQYNSTYRVVSVLTVLHQDWLNGKEYKCKVSNKALPAPIEKTISKAKGQPREPQVYTLPPSREEMTKNQVSLTCLVKGFYPSDIAVEWESNGQPENNYKTTPPVLDSDGSFFLYSRLTVDKSRWQQGNVFSCSVLHEALHSHYTQKSLSLSPGK
light 1: not shown
heavy 2: QVQLVQSGAEVKKPGASVKVSCKASGYDYTYYGISWVRQAPGQGLEWMGWISTYNTGTHYAPSLQGRVTMTTDTSTSTAYMELRSLRSDDTAVYYCARESYYGSGAFRGGMDVWGQGTTVTVSSASTKGPSVFPLAPSSKSTSGGTAALGCLVKDYFPEPVTVSWNSGALTSGVHTFPAVLQSSGLYSLSSVVTVPSSSLGTQTYICNVNHKPSNTKVDKKVEPKSCDKTHTCPPCPAPEAAGAPSVFLFPPKPKDTLMISRTPEVTCVVVDVSHEDPEVKFNWYVDGVEVHNAKTKPREEQYNSTYRVVSVLTVLHQDWLNGKEYKCKVSNKALPAPIEKTISKAKGQPREPQVYTLPPSREEMTKNQVSLTCEVKGFYPSDIAVEWESNGQPENNYKTTPPVLDSDGSFFLYSKLTVDKSRWQQGNVFSCSVLHEALHSHYTQKSLSLSPGK
light 2: not shown
notes: dual cell, E/R, LS
B2: p40TL1A-0033 (bispecific antibody, human IgG1, kappa)
heavy: B1 heavy 1 with Y351C, T368W, R411K
light: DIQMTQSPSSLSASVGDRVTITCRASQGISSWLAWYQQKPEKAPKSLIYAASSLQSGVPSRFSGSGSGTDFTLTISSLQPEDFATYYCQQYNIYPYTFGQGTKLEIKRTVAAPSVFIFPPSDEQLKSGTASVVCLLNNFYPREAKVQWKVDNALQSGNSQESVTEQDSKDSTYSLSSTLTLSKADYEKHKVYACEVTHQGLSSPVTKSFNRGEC
chain 1: not shown
chain 2: QVQLVQSGAEVKKPGASVKVSCKASGYDYTYYGISWVRQAPGQGLEWMGWISTYNTGTHYAPSLQGRVTMTTDTSTSTAYMELRSLRSDDTAVYYCARESYYGSGAFRGGMDVWGQGTTVTVSSASTKGPSVFPLAPSSKSTSGGTAALGCLVKDYFPEPVTVSWNSGALTSGVHTFPAVLQSSGLYSLSSVVTVPSSSLGTQTYICNVNHKPSNTKVDKKVEPKSC
notes: single cell, KiH, modified Fd, LS
B3: p40TL1A-0032 (bispecific antibody)
heavy 1: B1 heavy 1 with L130K, V187S, Y351C, T368W, R411K
light 1: DIQMTQSPSSLSASVGDRVTITCRASQGISSWLAWYQQKPEKAPKSLIYAASSLQSGVPSRFSGSGSGTDFTLTISSLQPEDFATYYCQQYNIYPYTFGQGTKLEIKRTVAAPSVFIFPPSDEQLKSGTASVSCLLNNFYPREAKVQWKVDNALQSGNSQESVTEQDSKDSTYSLDSTLTLSKADYEKHKVYACEVTHQGLSSPVTKSFNRGEC
heavy 2: B1 heavy 2 with L135E, S190G, S361C, T373S, E375A, Y414V
light 2: not shown
notes: single cell, KiH, S1-S1rev, LS
B4: p40TL1A-0001 (bispecific antibody)
heavy 1: B1 heavy 1 with D223R, P230R
light 1: not shown
heavy 2: B1 heavy 2 with D228E, P235E
light 2: not shown
notes: dual cell, EEE/RRR, LS
B5: p40TL1A-0018 (bispecific antibody, human IgG1, kappa)
heavy 1: B1 heavy 1 with T368W, R411K
light 1: not shown
heavy 2: B1 heavy 2 with T373S, E375A, Y414V
light 2: not shown
notes: dual cell, KiH without Cys in CH3, LS
B6: p40TL1A-0021 (bispecific antibody)
heavy 1: B1 heavy 1 with D223R
light 1: not shown
heavy 2: B1 heavy 2 with D228E
light 2: not shown
notes: dual cell, EE/RR, LS
B7: TL1A-0047 (antibody, human IgG1, kappa, V domains shown)
VH: EVQLVESGGGLVQPGGSLRLSCAASGYDFTYYGISWVRQAPGKGLEWVAWISTYNGNTHYARMLQGRFTISRDNAKNSLYLQMNSLRAEDTAVYYCARENYYGSGAYRGGMDVWGQGTTVTVSS
VL: EIVLTQSPATLSLSPGERATLSCRASQSVSSYLAWYQQKPGQAPRLLIYDASNRATGIPARFSGSGSGTDFTLTISSLEPEDFAVYYCQQRSNWPWTFGQGTKVEIKR
notes: IgG1/kappa; VH graft on IGHV3-7*01
B8: TL1A-0051 (antibody, human IgG1, kappa, V domains shown)
VH: B7 VH
VL: DIQMTQSPSSLSASVGDRVTITCRASQSVSSYLAWYQQKPGKAPKLLIYDASNRATGVPSRFSGSGSGTDFTLTISSLQPEDFATYYCQQRSNWPWTFGQGTKVEIKR
notes: IgG1/kappa; IGHV3-7*01 / IGKV1-39*01 grafts
B9: TL1A-0055 (antibody, human IgG1, kappa, V domains shown)
VH: B7 VH
VL: B7 VL with L4M, E79Q
notes: IgG1/kappa; IGHV3-7*01 / IGKV3D-7*01 grafts
B10: p40-0003 antibody (antibody, human IgG1, kappa, V domains shown)
VH: EVQLVQSGAEVKKPGESLKISCKGSGYSFTTYWLGWVRQMPGKGLDWIGIMSPVDSDIRYSPSFQGQVTMSVDKSITTAYLQWNSLKASDTAMYYCARRRPGQGYFDFWGQGTLVTVSS
VL: DIQMTQSPSSLSASVGDRVTITCRASQGISSWLAWYQQKPEKAPKSLIYAASSLQSGVPSRFSGSGSGTDFTLTISSLQPEDFATYYCQQYNIYPYTFGQGTKLEIKR

Biological target: T1, human IL-23
Test: SPR 37 C, bispecific captured by anti-human Fc, human IL-23 injected
Procedure: (§1) SPR was utilized to determine if the affinity constants of each arm of the bispecific variants binding human IL-23, containing the p40 subunit, and human TL1A were the same for each bispecific approach. For the analysis of the p40 binding arm, kinetic assays were conducted at 37° C. using a collection rate of 10 Hz on a Biacore™ 8 K+ instrument (GE Healthcare). An anti-human IgG antibody (anti-human Fc, GE Healthcare, 22-0648-88) was amine coupled to all four flow cells of a carboxymethylated dextran coated sensor chip (GE Healthcare,) using the manufacturer's recommended protocol. […] For the analysis of the TL1A binding arm, kinetic assays were conducted at 37° C. using a collection rate of 10 Hz on a Biacore™ T200 instrument (GE Healthcare).

| Kd [nM] | koff [s⁻¹] | kon [M⁻¹ s⁻¹] | Binder |
| --- | --- | --- | --- |
| 0.9 | 0.00157 | 1.75e+06 | B1 |
| 0.557 | 0.00115 | 2.07e+06 | B2 |
| 0.567 | 0.00109 | 1.92e+06 | B3 |
| 0.901 | 0.00156 | 1.73e+06 | B4 |
| 0.659 | 0.00121 | 1.83e+06 | B5 |
| 0.859 | 0.00152 | 1.77e+06 | B6 |

Biological target: T2, recombinant human TL1A
Test: competition ELISA vs bio-TL1A-0002
Procedure: For this competition ELISA assay procedure, 96-well high binding plates (Corning, product number 3590) were coated with 1 μg/mL recombinant TL1A in 100 μL/well in Phospate Buffered Saline (PBS) overnight at 4° C. Plates were then blocked in PBS+0.02% casein solution and washed with PBS+0.05% Tween-20 following standard ELISA protocol. […] Plates were washed with PBS+0.05% Tween-20 following standard ELISA protocol, and Streptavidin-HRP (Southern Biotech, product number 7100-05) diluted to 1:10,000 in assay buffer was added to plates and incubated for 25-30 minutes at room temperature. Next, the plates were washed with PBS+0.05% Tween-20 following standard ELISA protocol, and then TMB substrate (BioFX Laboratories, catalog number TMBW-0100-01) was added to plates. Reactions were stopped after approximately 5 minutes by adding 0.18 M ortho-phosphoric acid to each well and absorbance was read at 450 nm.

| Bioactivity relative to TL1A-0002 [fold] | IC50 [nM] | Binder |
| --- | --- | --- |
| 1.2 | 5.3 | B7 |
| 1 | 4.5 | B8 |
| 1 | 4.4 | B9 |

Biological target: T1, human IL-23
Test: SPR, bispecific held on captured biotinylated human TL1A, then human IL-23 injected (simultaneous binding)
Procedure: SPR was used to determine if the bispecific variants could simultaneously bind TL1A and IL-23, containing the p40 domain. For this analysis, a semi-quantitative SPR method was developed using Biacore™ T200 (GE Healthcare) instrumentation. […] The bispecific was injected for 90 seconds at a concentration of 20 μg/m L, a flow rate of 50 μL/minute, and captured to a level of approximately 40-150 RU. Next, recombinant human IL-23 was injected for 60 seconds and a flow rate of 50 μL/minute at a concentration range of 0.37-15 nM.

| Kd [nM] | koff [s⁻¹] | kon [M⁻¹ s⁻¹] | Binder |
| --- | --- | --- | --- |
| 0.107 | 0.000571 | 5.32e+06 | B1 |
| 0.0791 | 0.000519 | 6.56e+06 | B2 |
| 0.0788 | 0.000546 | 6.93e+06 | B3 |
| 0.09 | 0.000584 | 5.98e+06 | B4 |
| 0.0944 | 0.000521 | 5.51e+06 | B5 |
| 0.0738 | 0.000524 | 7.11e+06 | B6 |

Biological target: T3, human IL-23
Test: cell-based or functional assay

| KIT-225 STAT3 assay IL-23, Bioactivity relative to p40-0003 [fold] | KIT-225 STAT3 assay IL-23 IC50 [nM] | Binder |
| --- | --- | --- |
| 1 | 1.6 | B10 |

Biological target: T4, human IL-12
Test: cell-based or functional assay

| KIT-225 STAT4 assay IL-12, Bioactivity relative to p40-0003 [fold] | KIT-225 STAT4 assay IL-12 IC50 [nM] | Binder |
| --- | --- | --- |
| 1 | 3.3 | B10 |

Biological target: T5, recombinant human TL1A
Test: SPR 37 C, biotinylated human TL1A captured, bispecific injected
Procedure: as §1

| Kd [nM] | koff [s⁻¹] | kon [M⁻¹ s⁻¹] | Binder |
| --- | --- | --- | --- |
| 0.273 | 5.99e-05 | 219000 | B1 |
| 0.253 | 5.52e-05 | 218000 | B2 |
| 0.254 | 6.15e-05 | 243000 | B3 |
| 0.167 | 4.28e-05 | 256000 | B4 |
| 0.217 | 4.87e-05 | 224000 | B5 |
| 0.183 | 5.6e-05 | 307000 | B6 |
